Sequences and labels used below:
B1: I283T-N285P-N287T-Q290E-S322T-N388M-K394R-C430A-i431aN-L432F-L434W-S436N-dG462 (protein)
chain: MFLKSLREQINLLKRQGDLRIINRPVDSYLEAAAIIRRSTETKAPVPLMTNIKGYPGCSIVGGLAALSSNPEYPLSRVAMSLGLSTTASAQSIVQYLIDGLKKTPYLPVEIDSNSAPCKQNILRGEDASLAHFPIPQVHQHDGNRYVNTWGVFIVESPDGQWCNWSIQRVQYLNDRQMIALVFPSQHISDIWEEWVKIGKPMPYALVQGCEPIVPYIAGLPLLERNVNEAEYIGALYGKGIEVVKCETHDLRVPASSEVVIEGYFAITREGVEGPFGEFAGYTPPETSLEPILSITAISWQDDPIWPVVAEGKPVDEYHTCTGIGDAAAIQNVLLTANLPVSFVWVPLYSACHLMIVSINRHWRQTHPDLTSEQLTKKVGDVIHQTRMSIKLPRIVVLDDDVDPADTESLLWALATRIHPERKRYFYESAIFPWLNCYSEEERHNRKGKRVIIDALLPENHGAISSFDYAYPDDIKQRVLMHWETDFSHD
B2: L223Y-I283T-N285P-N287T-Q290E-S322T-N388M-K394R-C430A-i430aL-L432F-L434W-S436N-dG462 (protein)
chain: B1 chain with L223Y
B3: L223Y-I283T-N285P-N287T-Q290E-S322T-N388M-K394R-C430A-i430aN-L432F-L434W-S436N-dG462 (protein)
chain: B1 chain with L223Y
B4: L223Y-I283T-N285P-N287T-Q290E-S322T-N388M-K394R-i429aN-C430A-L432F-L434W-S436N-dG462 (protein)
chain: B1 chain with L223Y
B5: I283T-N285P-N287T-Q290E-S322T-N388M-K394R-E421F-C430A-L432F-L434W-S436N-i448aS-dG462 (protein)
chain: B1 chain with E421F
B6: I283T-N285P-N287T-Q290E-S322T-N388M-K394R-E421F-C430A-i430aL-L432F-L434W-S436N-dG462 (protein)
chain: B1 chain with E421F
B7: L223Y-I283T-N285P-N287T-Q290E-S322T-N388M-K394R-E421F-K423G-C430A-L432F-L434W-S436N-dG462 (protein)
chain: B1 chain with L223Y, E421F, K423G
B8: L223Y-I283T-N285P-N287T-Q290E-S322T-N388M-K394R-C430A-i430aG-L432F-L434W-S436N-C437L-dG462 (protein)
chain: B1 chain with L223Y, C437L
B9: L223Y-I283T-N285P-N287T-Q290E-S322T-N388M-K394R-K423G-C430A-i430aG-L432F-L434W-S436N-dG462 (protein)
chain: B1 chain with L223Y, K423G
B10: I283T-N285P-N287T-Q290E-S322T-N388M-K394R-E421F-C430A-i430aN-L432F-L434W-S436N-dG462 (protein)
chain: B1 chain with E421F
B11: I283T-N285P-N287T-Q290E-S322T-N388M-K394R-E421F-C430A-i430aG-L432F-L434W-S436N-dG462 (protein)
chain: B1 chain with E421F
B12: L223Y-I283T-N285P-N287T-Q290E-S322T-N388M-K394R-K423G-C430A-L432F-L434W-S436N-i448aS-dG462 (protein)
chain: B1 chain with L223Y, K423G
B13: H141C-I283T-N285P-N287T-Q290E-S322T-N388M-K394R-C430A-i430aG-L432F-L434W-S436N-dG462 (protein)
chain: B1 chain with H141C
B14: I283T-N285P-N287T-Q290E-S322T-N388M-K394R-C430A-L432F-L434W-S436N-i449aS-dG462 (protein)
chain: B1 chain
B15: L223Y-I283T-N285P-N287T-Q290E-S322T-N388M-K394R-C430A-L432F-L434W-S436N-C437L-dG462 (protein)
chain: B1 chain with L223Y, C437L
B16: I283T-N285P-N287T-Q290E-S322T-N388M-K394R-C430A-i430aG-L432F-L434W-S436N-V451S-dG462 (protein)
chain: B1 chain with V451S
B17: L223Y-I283T-N285P-N287T-Q290E-S322T-N388M-K394R-K423G-C430A-i430aN-L432F-L434W-S436N-dG462 (protein)
chain: B1 chain with L223Y, K423G
B18: I283T-N285P-N287T-Q290E-S322T-N388M-K394R-C430A-i430aG-L432F-L434W-S436N-C437L-dG462 (protein)
chain: B1 chain with C437L
B19: L223Y-I283T-N285P-N287T-Q290E-S322T-N388M-K394R-K423G-C430A-i430aL-L432F-L434W-S436N-dG462 (protein)
chain: B1 chain with L223Y, K423G
B20: L223Y-I283T-N285P-N287T-Q290E-S322T-N388M-K394R-C430A-i430aG-L432F-L434W-S436N-dG462 (protein)
chain: B1 chain with L223Y
B21: L223Y-I283T-N285P-N287T-Q290E-S322T-N388M-K394R-E421F-C430A-L432F-L434W-S436N-dG462 (protein)
chain: B1 chain with L223Y, E421F

Where a chain is given by its changes, count along the chain named. Names may count otherwise.

The subject of this assay is 3-methylcrotonic acid. Format: biochemical, Yersinia frederiksenii. More on the design: key: “+” representing a low increase in activity; “++++” representing a high increase in activity.
For the molecule B1, the “Activity relative to WT” value is reported as “++++”.

For the molecule B2, the “Activity relative to WT” value is listed as “++++”.

With B3, the “Activity relative to WT” value is “++++”. In the case of B4, the “Activity relative to WT” value is “++++”. The result for B5 reads “++++”. The result for B6 reads “++++”; that for B7, “++++”; that for B8, “++++”. The result for B9 reads “++++”; that for B10, “++++”; that for B11, “++++”. For the molecule B12, the “Activity relative to WT” value is given as “++++”. On to B13, for which the “Activity relative to WT” value was “++++”. Take B14: the “Activity relative to WT” value is “++++”. The value for B15 was “++++”; that for B16 was “++++”; that for B17 was “++++”.

As to B18, the “Activity relative to WT” value is given as “++++”.

For the molecule B19, the “Activity relative to WT” value was “++++”. On to B20, for which the “Activity relative to WT” value is reported as “++++”. Turning to B21, the “Activity relative to WT” value is recorded as “++++”.
